Data published in patent US20230049732A1 (UNIVERSITY OF LOUISVILLE RESEARCH FOUNDATION, published 2023).

Key:
[1] = molecular target: T1, VLPs of B19V genotype 2 (Lali strain VP2) (parvovirus B19 genotype 2, UniProt P07299 228-781); experiment: ELISA, VLPs coated
T1 construct: Intact VLPs of non-mutated VP2
T1 chain: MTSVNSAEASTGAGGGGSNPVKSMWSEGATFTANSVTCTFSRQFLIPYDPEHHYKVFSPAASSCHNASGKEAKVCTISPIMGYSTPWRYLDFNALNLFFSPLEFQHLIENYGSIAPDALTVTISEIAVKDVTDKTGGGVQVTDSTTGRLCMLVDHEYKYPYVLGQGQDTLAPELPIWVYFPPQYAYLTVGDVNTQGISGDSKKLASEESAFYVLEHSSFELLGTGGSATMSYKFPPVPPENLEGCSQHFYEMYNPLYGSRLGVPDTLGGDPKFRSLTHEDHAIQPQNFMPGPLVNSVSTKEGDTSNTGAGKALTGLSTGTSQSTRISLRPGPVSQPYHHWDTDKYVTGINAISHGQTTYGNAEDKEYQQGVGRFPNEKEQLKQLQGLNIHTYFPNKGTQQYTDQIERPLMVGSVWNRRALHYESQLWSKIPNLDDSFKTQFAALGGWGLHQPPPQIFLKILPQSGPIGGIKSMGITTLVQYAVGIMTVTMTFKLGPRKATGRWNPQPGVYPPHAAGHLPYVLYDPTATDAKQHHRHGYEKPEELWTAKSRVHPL
Description: (§1) First, 96-well ELISA plates (Immunolon 2; Dynatech) were coated, either 1 h at 37° C. or overnight at 4° C., with 250 to 500 ng per well of B19V VLPs. Intact VLPs were re-suspended in PBS, and the disrupted VLPs were re-suspended in the following solution: 0.2 M NaCO₃, 0.01 M dithiothreitol, pH 7.0, to detect sequential epitopes. The plates were washed three times with PBS, then saturated with bovine albumin via PBS containing 5% bovine serum albumin (5% PBSA) for 1 h at 37° C. After washing three times, plates were then incubated with primary antibodies. Primary antibodies used were rabbit sera (at 1/1000), mouse sera (1/100 dilution) to B19V VLPs, or supernatant of hybridoma cells without dilution for 1 h at 37° C. Thereafter, plates were washed thrice with PBS, then incubated with alkaline phosphatase-conjugated secondary antibodies, with either goat anti-mouse or anti-rabbit IgG (H+L) (Sigma, USA) at a dilution of 1:5000 for 1 h at 37° C. After washing with PBS, bound antibodies were detected with an alkaline phosphatase chromogenic substrate (Phosphatase substrate, Sigma, USA), and absorption was measured at 405 nm. One percent PBSA and sera collected from pre-immune animals were used as negative controls. Human papillomavirus (HPV) and mouse parvovirus (MPV) VLPs were used to check the cross-reactivity of primary antibodies with other types of VLPs. All antibodies were diluted in 1% PBSA.

[2] = molecular target: T2, wtVLPs of parvovirus B19 genotype 1 (VP2 only) (parvovirus B19 genotype 1, UniProt P07299 228-781); experiment: ELISA, VLPs coated
T2 construct: Intact virus-like particles self-assembled from VP2 alone, made in Sf9 cells with baculovirus; also called B19V genotype 1; Prototype Q399QYTDQ404
T2 sequence: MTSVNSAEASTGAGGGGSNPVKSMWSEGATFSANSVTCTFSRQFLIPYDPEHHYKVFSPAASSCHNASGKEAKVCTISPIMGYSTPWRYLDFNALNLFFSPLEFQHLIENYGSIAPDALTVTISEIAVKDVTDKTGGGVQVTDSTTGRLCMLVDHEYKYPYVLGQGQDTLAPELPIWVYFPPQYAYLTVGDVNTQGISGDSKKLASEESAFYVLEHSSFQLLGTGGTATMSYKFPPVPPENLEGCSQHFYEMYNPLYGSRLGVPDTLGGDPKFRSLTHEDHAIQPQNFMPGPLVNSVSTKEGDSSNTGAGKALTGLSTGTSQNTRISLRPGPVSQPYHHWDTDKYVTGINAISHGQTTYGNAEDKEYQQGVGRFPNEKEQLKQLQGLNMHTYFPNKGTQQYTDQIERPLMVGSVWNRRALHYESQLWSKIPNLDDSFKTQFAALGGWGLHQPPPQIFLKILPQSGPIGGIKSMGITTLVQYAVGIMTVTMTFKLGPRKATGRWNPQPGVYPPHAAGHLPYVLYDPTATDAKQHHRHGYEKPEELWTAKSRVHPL
Description: as §1

KEYA368A369-VLPs of B19V = molecular target: T3, KEYA368A369-VLPs of B19V (parvovirus B19 genotype 1 (mutated), UniProt P07299 228-781); experiment: ELISA, intact VLPs coated, hybridoma supernatant
T3 construct: also called construct D
T3 chain: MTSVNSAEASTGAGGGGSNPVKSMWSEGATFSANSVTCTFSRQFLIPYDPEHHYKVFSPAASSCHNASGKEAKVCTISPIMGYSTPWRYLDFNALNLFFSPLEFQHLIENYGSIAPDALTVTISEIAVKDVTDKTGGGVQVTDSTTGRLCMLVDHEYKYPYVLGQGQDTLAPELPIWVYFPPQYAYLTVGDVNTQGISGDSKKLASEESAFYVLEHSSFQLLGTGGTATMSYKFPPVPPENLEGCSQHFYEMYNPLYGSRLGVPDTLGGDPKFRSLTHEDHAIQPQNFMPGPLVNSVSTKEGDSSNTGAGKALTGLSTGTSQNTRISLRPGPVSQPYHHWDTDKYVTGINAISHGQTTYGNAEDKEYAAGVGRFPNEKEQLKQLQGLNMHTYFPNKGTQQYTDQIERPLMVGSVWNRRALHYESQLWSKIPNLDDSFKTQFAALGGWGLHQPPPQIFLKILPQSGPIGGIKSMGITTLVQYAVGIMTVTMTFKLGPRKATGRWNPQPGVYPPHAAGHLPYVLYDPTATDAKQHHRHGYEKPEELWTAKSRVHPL

[3] = molecular target: T2, wtVLPs of parvovirus B19 genotype 1 …; experiment: ELISA, intact VLPs coated, hybridoma supernatant
HPV16 VLPs = molecular target: T4, HPV16 VLPs (human papillomavirus type 16, UniProt P03101 1-505); experiment: ELISA, VLPs coated
T4 construct: Specificity control; also called human papillomavirus VLPs
T4 sequence: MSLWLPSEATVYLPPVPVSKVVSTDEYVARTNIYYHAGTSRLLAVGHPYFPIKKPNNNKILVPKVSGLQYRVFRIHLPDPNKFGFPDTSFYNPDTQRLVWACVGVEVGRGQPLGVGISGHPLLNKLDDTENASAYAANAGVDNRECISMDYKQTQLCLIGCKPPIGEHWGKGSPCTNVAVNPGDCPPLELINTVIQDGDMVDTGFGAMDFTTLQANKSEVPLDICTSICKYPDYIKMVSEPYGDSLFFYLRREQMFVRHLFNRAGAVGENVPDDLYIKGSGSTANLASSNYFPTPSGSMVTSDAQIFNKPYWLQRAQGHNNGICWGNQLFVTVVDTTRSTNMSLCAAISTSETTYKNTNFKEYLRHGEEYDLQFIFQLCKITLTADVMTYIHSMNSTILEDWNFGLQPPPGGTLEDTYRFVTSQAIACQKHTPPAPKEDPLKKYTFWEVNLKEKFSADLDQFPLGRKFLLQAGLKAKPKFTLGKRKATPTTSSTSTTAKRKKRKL

B1: MAb #25 (antibody, V domains shown)
VH: QVQLQQPGAELVRPGASVKLSCKASGYTFTNYWMHWVKQRPEQGLEWIGRIDPYDSETHYNQKFKDKAILTVDTSSNTAYMQLSSLTSEDSAVYYCTSYYYGSNYVWHFDVWGAGTTVTVSS
VL: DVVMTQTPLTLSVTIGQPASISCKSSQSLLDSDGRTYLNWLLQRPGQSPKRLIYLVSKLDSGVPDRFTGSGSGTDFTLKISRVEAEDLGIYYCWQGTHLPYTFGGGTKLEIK
notes: Murine hybridoma antibody, supernatant; also called antibody 25
Q: Which results are given for B1?
A: ELISA absorbance (405 nm) [1]: 2.54; ELISA absorbance (405 nm) [2]: 2.67; ELISA absorbance (405 nm) (KEYA368A369-VLPs of B19V): 2.79; ELISA absorbance (405 nm) [3]: 2.86; binding result (HPV16 VLPs): no binding

B2: MAb #91 (antibody, V domains shown)
VH: EVQLQQSGPELVKPGASVKISCKASGYSFTDYFMNWVKQSHGKSLEWIGRINPYNGDSFYNQNFRGSVTLTVDKSSGTAHMELLSLTSEDSTVYYCGAYRYDGYAMDYWGQGTSVTVSS
VL: DVVMTQTPLSLPVSLGDQASISCRSSQSLVHSDGNTYLHWYLQKPGQSPKLLIYKVSNRFSGVPDRFSGSGSGTDFTLKISRVEAEDLGVYFCSQSTHVPFTFGSGTKLEIK
notes: Murine hybridoma antibody, supernatant; also called antibody 91
Q: How did the “ELISA absorbance (405 nm)” value [1] turn out when B2 was run?
A: 3.09

Q: What about the “ELISA absorbance (405 nm)” value [2] of the same binder?
A: 3.43

Q: And the “ELISA absorbance (405 nm)” value (KEYA368A369-VLPs of B19V)?
A: 2.59

Q: What about the “ELISA absorbance (405 nm)” value [3] of the same binder?
A: 3.72

Q: Does B2 bind (HPV16 VLPs)?
A: no binding
